From PMC10156792, “The structure and evolutionary diversity of the fungal E3-binding protein” (Communications Biology, 2023)
One block for each molecule: values may come before it.

Tests used:
[1] = molecular target: N.crassa E3-binding protein in the native pyruvate dehydrogenase complex (N.crassa); assay: cryo-EM structure; native PDC data EMPIAR-10489 reprocessed; symmetry-expanded consensus alignments only, C3 symmetry, 4.1 Å
[2] = molecular target: the molecule itself; assay: cryo-EM structure; recombinant co-expressed CTD:CBD sub-complex (tE2/PX261); symmetry expansion, signal subtraction and classification of E2 trimers, C3 symmetry, 3.2 Å

stoichiometry N [1]: 3
Molecule: N.crassa E3-binding protein in the native pyruvate dehydrogenase complex (natural protein)

B1: N.crassa E2 C-terminal catalytic transacetylase domain (residues 225-458) (domain or fragment, UniProt P20285 225-458, looked up)
chain: AAYTDVPISGMRKTIAARLKESVTENPHFFVSTNLSVSKLLKLRQALNSSADGRYKLSVNDFLIKAMGIASKRVPTVNSSWRDGVIRQFETVDVSVAVATPNGLITPIVKGVEGKGLESISAAVKELAKKARDGKLKPEEYQGGSISISNMGMNPAVQSFTAIINPPQAAILAVGAPQKVAVPVENEDGTTGVSWDEQIIVTASFDHKVVDGAVGAEWIRELKKVIENPLELLL
notes: Forms trimers that assemble into the icosahedral PDC core; also called E2 CTD; CTD; source: E. coli Rosetta2 (DE3), co-expressed with his-tagged E3BP 261-426 from the petDuet vector, purified (Ni-NTA, SEC)
binding result [2]: binds

B2: N.crassa E3-binding protein core-binding domain (residues 261-426), his-tagged (domain or fragment, UniProt Q7RWS2 261-426, looked up)
chain: PAPPPVAVVTAPISLSAAIDVQNKLHKTIGVFLPLSTFITRATEIANQKLPLPANYQPTADELFNQVLGLDKVTRKESRGSYTPTFGSFVAPQRAARKADIIDILAAPSTRVAASAQSKSAAPGLTTSGPNVFSLQVPKSEEKRAQAFLQKMKLVLEQEPDKLVRA
notes: residues 265-346 and 390-425 were built; Trimer inside the E2 core by the cryo-EM reconstruction; also called E3BP CBD; CBD; source: E. coli Rosetta2 (DE3), co-expressed with E2 225-458 from the petDuet vector, purified (Ni-NTA, SEC)
stoichiometry N [2]: 3
